From PMC2918618, “Characterization of the TnsD-attTn7 complex that promotes site-specific insertion of Tn7” (Mobile DNA, 2010)

T1: TnsD wt (Escherichia coli (transposon Tn7)) (UniProt P13991)
T1 sequence: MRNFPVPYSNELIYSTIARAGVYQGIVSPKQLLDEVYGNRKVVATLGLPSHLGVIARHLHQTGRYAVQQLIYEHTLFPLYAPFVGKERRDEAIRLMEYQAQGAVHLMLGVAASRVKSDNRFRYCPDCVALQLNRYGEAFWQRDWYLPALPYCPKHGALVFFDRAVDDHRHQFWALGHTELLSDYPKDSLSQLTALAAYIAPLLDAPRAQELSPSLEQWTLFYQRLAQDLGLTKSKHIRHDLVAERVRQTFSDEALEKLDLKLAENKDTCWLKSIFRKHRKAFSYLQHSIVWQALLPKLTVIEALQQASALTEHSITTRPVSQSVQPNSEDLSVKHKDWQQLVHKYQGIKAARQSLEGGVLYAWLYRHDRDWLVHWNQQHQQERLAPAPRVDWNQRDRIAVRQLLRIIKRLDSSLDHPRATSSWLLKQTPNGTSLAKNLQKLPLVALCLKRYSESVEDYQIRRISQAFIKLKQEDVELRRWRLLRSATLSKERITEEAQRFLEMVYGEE

T2: TnsD (1 to 507) wt (E. coli (transposon Tn7), UniProt P13991 1-508)
T2 construct: TnsD, target site-selector protein of the bacterial transposon Tn7, residues 1 to 507 (full-length TnsD is 507 aa); TnsD was cloned into pDBLeu (ProQuest Two-Hybrid System); also called full-length TnsD; source: yeast two-hybrid fusion
T2 sequence (looked up): T1 sequence

T3: TnsD (1 to 309) (E. coli (transposon Tn7), UniProt P13991 1-309)
T3 construct: TnsD of transposon Tn7, residues 1 to 309; source: yeast two-hybrid fusion
T3 sequence (looked up): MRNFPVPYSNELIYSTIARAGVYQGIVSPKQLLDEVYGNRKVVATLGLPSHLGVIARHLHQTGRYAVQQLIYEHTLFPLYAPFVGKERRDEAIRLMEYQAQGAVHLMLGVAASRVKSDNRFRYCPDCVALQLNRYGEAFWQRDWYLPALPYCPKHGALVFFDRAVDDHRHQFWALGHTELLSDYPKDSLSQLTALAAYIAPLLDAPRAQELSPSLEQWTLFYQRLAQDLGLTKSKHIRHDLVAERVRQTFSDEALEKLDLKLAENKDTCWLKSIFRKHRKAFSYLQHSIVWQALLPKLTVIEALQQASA

T4: TnsD (1 to 399) (E. coli (transposon Tn7), UniProt P13991 1-399)
T4 construct: TnsD of transposon Tn7, residues 1 to 399; source: yeast two-hybrid fusion
T4 sequence (looked up): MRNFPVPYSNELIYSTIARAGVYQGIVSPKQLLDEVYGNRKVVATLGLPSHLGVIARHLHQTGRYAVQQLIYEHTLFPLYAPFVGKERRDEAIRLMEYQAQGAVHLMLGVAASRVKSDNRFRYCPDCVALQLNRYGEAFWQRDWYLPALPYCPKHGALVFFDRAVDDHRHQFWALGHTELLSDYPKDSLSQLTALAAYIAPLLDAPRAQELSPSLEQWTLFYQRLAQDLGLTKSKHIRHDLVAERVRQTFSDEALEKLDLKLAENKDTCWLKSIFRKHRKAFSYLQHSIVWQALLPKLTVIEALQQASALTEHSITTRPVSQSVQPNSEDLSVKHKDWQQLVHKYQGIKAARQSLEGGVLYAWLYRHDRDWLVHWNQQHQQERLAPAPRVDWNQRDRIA

T5: TnsD (1 to 375) (E. coli (transposon Tn7), UniProt P13991 1-375)
T5 construct: TnsD of transposon Tn7, residues 1 to 375; source: yeast two-hybrid fusion
T5 sequence (looked up): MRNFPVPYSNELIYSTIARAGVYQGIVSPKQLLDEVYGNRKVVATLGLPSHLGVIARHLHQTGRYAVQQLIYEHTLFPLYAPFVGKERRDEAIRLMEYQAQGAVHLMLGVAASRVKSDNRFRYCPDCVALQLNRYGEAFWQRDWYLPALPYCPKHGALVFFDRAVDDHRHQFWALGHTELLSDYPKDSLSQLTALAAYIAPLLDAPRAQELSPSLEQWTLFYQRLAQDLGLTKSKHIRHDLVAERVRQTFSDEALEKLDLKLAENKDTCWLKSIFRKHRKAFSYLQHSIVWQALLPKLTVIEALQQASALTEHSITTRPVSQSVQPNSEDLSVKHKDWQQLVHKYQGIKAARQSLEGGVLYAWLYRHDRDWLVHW

T6: TnsD (1 to 350) (E. coli (transposon Tn7), UniProt P13991 1-350)
T6 construct: TnsD of transposon Tn7, residues 1 to 350; source: yeast two-hybrid fusion
T6 sequence (looked up): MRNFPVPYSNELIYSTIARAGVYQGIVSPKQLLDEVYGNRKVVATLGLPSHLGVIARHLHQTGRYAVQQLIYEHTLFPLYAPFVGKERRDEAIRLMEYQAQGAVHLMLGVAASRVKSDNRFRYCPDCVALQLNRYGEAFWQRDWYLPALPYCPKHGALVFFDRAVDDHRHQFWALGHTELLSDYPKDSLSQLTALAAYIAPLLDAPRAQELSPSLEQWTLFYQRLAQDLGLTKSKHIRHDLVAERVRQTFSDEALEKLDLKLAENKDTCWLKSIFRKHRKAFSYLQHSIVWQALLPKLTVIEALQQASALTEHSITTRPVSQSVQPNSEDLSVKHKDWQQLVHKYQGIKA

B1: TnsC (1 to 480) (domain or fragment, E. coli (transposon Tn7), UniProt P05846 1-480, looked up)
chain: MSATRIQAVYRDTGVEAYRDNPFIEALPPLQESVNSAASLKSSLQLTSSDLQKSRVIRAHTICRIPDDYFQPLGTHLLLSERISVMIRGGYVGRNPKTGDLQKHLQNGYERVQTGELETFRFEEARSTAQSLLLIGCSGSGKTTSLHRILATYPQVIYHRELNVEQVVYLKIDCSHNGSLKEICLNFFRALDRALGSNYERRYGLKRHGIETMLALMSQIANAHALGLLVIDEIQHLSRSRSGGSQEMLNFFVTMVNIIGVPVMLIGTPKAREIFEADLRSARRGAGFGAIFWDPIQQTQRGKPNQEWIAFTDNLWQLQLLQRKDALLSDEVRDVWYELSQGVMDIVVKLFVLAQLRALALGNERITAGLLRQVYQDELKPVHPMLEALRSGIPERIARYSDLVVPEIDKRLIQLQLDIAAIQEQTPEEKALQELDTEDQRHLYLMLKEDYDSSLLIPTIKKAFSQNPTMTRQKLLPLVL
notes: TnsC of transposon Tn7, residues 1 to 480; also called TnsC with deletion of 75 amino acids from the C terminus; source: yeast two-hybrid fusion
B2: TnsC (1 to 384) (domain or fragment, E. coli (transposon Tn7), UniProt P05846 1-384, looked up)
chain: MSATRIQAVYRDTGVEAYRDNPFIEALPPLQESVNSAASLKSSLQLTSSDLQKSRVIRAHTICRIPDDYFQPLGTHLLLSERISVMIRGGYVGRNPKTGDLQKHLQNGYERVQTGELETFRFEEARSTAQSLLLIGCSGSGKTTSLHRILATYPQVIYHRELNVEQVVYLKIDCSHNGSLKEICLNFFRALDRALGSNYERRYGLKRHGIETMLALMSQIANAHALGLLVIDEIQHLSRSRSGGSQEMLNFFVTMVNIIGVPVMLIGTPKAREIFEADLRSARRGAGFGAIFWDPIQQTQRGKPNQEWIAFTDNLWQLQLLQRKDALLSDEVRDVWYELSQGVMDIVVKLFVLAQLRALALGNERITAGLLRQVYQDELKPVHP
notes: TnsC of transposon Tn7, residues 1 to 384; also called TnsC with deletion of 171 amino acids from the C terminus; source: yeast two-hybrid fusion
B3: TnsC (1 to 293) (domain or fragment, E. coli (transposon Tn7), UniProt P05846 1-293, looked up)
chain: MSATRIQAVYRDTGVEAYRDNPFIEALPPLQESVNSAASLKSSLQLTSSDLQKSRVIRAHTICRIPDDYFQPLGTHLLLSERISVMIRGGYVGRNPKTGDLQKHLQNGYERVQTGELETFRFEEARSTAQSLLLIGCSGSGKTTSLHRILATYPQVIYHRELNVEQVVYLKIDCSHNGSLKEICLNFFRALDRALGSNYERRYGLKRHGIETMLALMSQIANAHALGLLVIDEIQHLSRSRSGGSQEMLNFFVTMVNIIGVPVMLIGTPKAREIFEADLRSARRGAGFGAIFW
notes: TnsC of transposon Tn7, residues 1 to 293; source: yeast two-hybrid fusion
B4: TnsC (1 to 555) wt (natural protein, E. coli (transposon Tn7), UniProt P05846 1-555, looked up)
chain: MSATRIQAVYRDTGVEAYRDNPFIEALPPLQESVNSAASLKSSLQLTSSDLQKSRVIRAHTICRIPDDYFQPLGTHLLLSERISVMIRGGYVGRNPKTGDLQKHLQNGYERVQTGELETFRFEEARSTAQSLLLIGCSGSGKTTSLHRILATYPQVIYHRELNVEQVVYLKIDCSHNGSLKEICLNFFRALDRALGSNYERRYGLKRHGIETMLALMSQIANAHALGLLVIDEIQHLSRSRSGGSQEMLNFFVTMVNIIGVPVMLIGTPKAREIFEADLRSARRGAGFGAIFWDPIQQTQRGKPNQEWIAFTDNLWQLQLLQRKDALLSDEVRDVWYELSQGVMDIVVKLFVLAQLRALALGNERITAGLLRQVYQDELKPVHPMLEALRSGIPERIARYSDLVVPEIDKRLIQLQLDIAAIQEQTPEEKALQELDTEDQRHLYLMLKEDYDSSLLIPTIKKAFSQNPTMTRQKLLPLVLQWLMEGETVVSELEKPSKSKKVSAIKVVKPSDWDSLPDTDLRYIYSQRQPEKTMHERLKGKGVIVDMASLFKQAG
notes: TnsC, transposition protein of the bacterial transposon Tn7, residues 1 to 555 (full-length is 555 aa); TnsC was cloned into pPC86 (ProQuest Two-Hybrid System); also called full-length TnsC; source: yeast two-hybrid fusion

Key:
[1] = target: T1, TnsD wt (Escherichia coli (transposon Tn7)); assay: EMSA; details: Gel-shift buffer not given (as described in ref. 6); TnsD stored in 500 mM KCl, 50 mM Tris-HCl pH 8.0, 1 mM EDTA, 2 mM DTT, 25% glycerol
RB = assay: two-hybrid; yeast two-hybrid (ProQuest Two-Hybrid System); TnsD in pDBLeu (Gal4-DB), TnsC in pPC86 (Gal4-AD); read-out β-galactosidase activity; empty vectors gave 0.075
Sequence of RB (P06400 2-928): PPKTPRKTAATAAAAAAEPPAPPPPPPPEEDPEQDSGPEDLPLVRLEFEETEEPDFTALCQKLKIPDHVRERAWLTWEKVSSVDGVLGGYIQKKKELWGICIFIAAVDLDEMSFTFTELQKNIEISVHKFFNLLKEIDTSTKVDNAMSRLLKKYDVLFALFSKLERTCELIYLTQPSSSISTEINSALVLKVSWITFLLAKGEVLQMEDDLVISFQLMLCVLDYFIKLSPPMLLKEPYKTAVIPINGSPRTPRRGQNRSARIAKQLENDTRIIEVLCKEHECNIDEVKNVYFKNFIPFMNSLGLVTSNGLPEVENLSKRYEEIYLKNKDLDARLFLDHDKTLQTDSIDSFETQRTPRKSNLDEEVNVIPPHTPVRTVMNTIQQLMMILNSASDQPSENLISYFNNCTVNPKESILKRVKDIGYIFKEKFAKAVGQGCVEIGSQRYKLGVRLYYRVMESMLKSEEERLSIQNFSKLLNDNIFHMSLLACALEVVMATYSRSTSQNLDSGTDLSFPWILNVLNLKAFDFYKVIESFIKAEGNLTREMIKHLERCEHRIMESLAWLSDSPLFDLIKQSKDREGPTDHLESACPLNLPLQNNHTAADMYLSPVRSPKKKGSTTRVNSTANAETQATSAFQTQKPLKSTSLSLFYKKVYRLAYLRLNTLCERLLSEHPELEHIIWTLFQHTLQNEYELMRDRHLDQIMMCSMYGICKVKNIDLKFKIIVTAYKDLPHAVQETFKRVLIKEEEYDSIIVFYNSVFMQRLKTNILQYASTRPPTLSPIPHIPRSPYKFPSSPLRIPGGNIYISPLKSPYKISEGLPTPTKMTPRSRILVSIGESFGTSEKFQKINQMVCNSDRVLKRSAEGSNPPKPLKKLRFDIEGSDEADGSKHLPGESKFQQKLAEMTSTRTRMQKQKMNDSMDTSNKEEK

Jun = assay: as above
Sequence of Jun (P05627 whole entry): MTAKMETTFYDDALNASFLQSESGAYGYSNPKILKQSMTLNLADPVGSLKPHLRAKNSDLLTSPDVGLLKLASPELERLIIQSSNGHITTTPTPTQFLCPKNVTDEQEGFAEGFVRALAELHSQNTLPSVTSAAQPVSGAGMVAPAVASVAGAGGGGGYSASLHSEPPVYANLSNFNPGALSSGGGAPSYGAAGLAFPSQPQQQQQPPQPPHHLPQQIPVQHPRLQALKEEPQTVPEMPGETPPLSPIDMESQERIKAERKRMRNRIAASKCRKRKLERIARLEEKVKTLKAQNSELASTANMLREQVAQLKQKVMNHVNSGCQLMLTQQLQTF

TnsD (1 to 507) wt = target: T2, TnsD (1 to 507) wt; assay: as above; details: partners not purified
TnsD (1 to 309) = target: T3, TnsD (1 to 309); assay: as above; details: partners not purified
TnsD (1 to 399) = target: T4, TnsD (1 to 399); assay: as above; details: partners not purified
TnsD (1 to 375) = target: T5, TnsD (1 to 375); assay: as above; details: partners not purified
TnsD (1 to 350) = target: T6, TnsD (1 to 350); assay: as above; details: partners not purified

Row | Molecule | binding signal (relative to wt site) [1] | further results
1 | CCGCGTAACCTGGCAACATCGGTTACGGTTGAGTAA (double strand) [attTn7 +42 mutant] | < 0.2 | 
2 | CCGCGTAACCTGGCAAAATCGGTTAAGGTTGAGTAA (double strand) [attTn7 +33 mutant] | < 0.2 | 
3 | CCGCGTAACCTGGCAAAATCGTTTACGGTTGAGTAA (double strand) [attTn7 +37 mutant] | 0.5 | 
4 | E2F1 (natural protein) |  | β-galactosidase activity (RB): 1
5 | CCGCGTAACCGGGCAAAATCGGTTACGGTTGAGTAA (double strand) [attTn7 +48 mutant] | 0.5 | 
6 | CCGCTTAACCTGGCAAAATCGGTTACGGTTGAGTAA (double strand) [attTn7 +54 mutant] | < 0.2 | 
7 | CCGCGTAACCTGGCACAATCGGTTACGGTTGAGTAA (double strand) [attTn7 +43 mutant] | < 0.2 | 
8 | CCGCGTAACCTGGAAAAATCGGTTACGGTTGAGTAA (double strand) [attTn7 +45 mutant] | < 0.2 | 
9 | CCGCGTCACCTGGCAAAATCGGTTACGGTTGAGTAA (double strand) [attTn7 +52 mutant] | 0.5 | 
10 | CCGCGTACCCTGGCAAAATCGGTTACGGTTGAGTAA (double strand) [attTn7 +51 mutant] | < 0.2 | 
11 | CCGCGTAACCTGGCAAAATCGGTTACGTTTGAGTAA (double strand) [attTn7 +31 mutant] | < 0.2 | 
12 | CCGCGTAACCTGGCAAAATCGGTTACGGGTGAGTAA (double strand) [attTn7 +30 mutant] | 0.5 | 
13 | Fos (natural protein) |  | β-galactosidase activity (Jun): 5
14 | B1 |  | β-galactosidase activity (TnsD (1 to 507) wt): 1
15 | B2 |  | β-galactosidase activity (TnsD (1 to 507) wt): 1
16 | B3 |  | β-galactosidase activity (TnsD (1 to 507) wt): 0.2
17 | B4 |  | β-galactosidase activity (TnsD (1 to 507) wt): 1; β-galactosidase activity (TnsD (1 to 309)): 4.5; β-galactosidase activity (TnsD (1 to 399)): 4.5; β-galactosidase activity (TnsD (1 to 375)): 5; β-galactosidase activity (TnsD (1 to 350)): 4.5
